# The DeepSol protein solubility set
# Assay: soluble on expression in E. coli; label from the status in PepcDB or PDB records
row,Sequence,soluble on expression in E. coli
1,ARFYSDGLKLAGTLFVPDDYEPGQKRPAVLICHGRFAIKEWVPSRWTPHFLAAGYVCMVFDYRNLGESEGTPGRIIPDEEVRDARHALTYLQCQPEVDPARIGALGWGLGGGVAVSAAAHDARIKAVVCAIGVANGGRYGRVGMSDAAWAARQEQIAADRRERVLTGRSARLPRTEILGRPDAQRAERHERQNWIDSLVAAVGPERAADPAKLGIPDEITLESMEALYDFAPDAVVDRIAPRPLLIVHARDDHEFPFEHAADMYERAAQPKQLIAVEDAGHLDWIDPAHPSQQVYVPQVVAWMQAQL,not soluble
2,ASAFSESEETFVRIVAQWAGKEISRRRNQKRANAERERLRQIIDTIPQQVFVKDADGTYTLANKAAAAAHGVAVERLEGATHDEFALSDEQRDFKSDDAAVIENGESVHIEEDGLVEADGSSHTVQTDIVPIEIAS,not soluble
3,ASGTTLNWTGRMLGNGTLVKEGAGTLALSGFNAHGGTVVNAGTVQISNDYGLGNGALTLNNSRLASTADIYAEAAATVNGNGTFDTANGTTLQWMGDIGGAGALVKTGAGTLLLGGDSLY,not soluble
4,ASHMQRIAVTAEGPGLDGLVDPRFGRAAGFVVVDAATMAAEYVDNGASQTLSHGAGINAAQVLAKSGAGVLLTGYVGPKAFQALQAAGIKVGQDLEGLTVRQAVQRFLDGQVPMAAGPNK,soluble
5,ASITGDALVALPEGESVRIADIVPGARPNSDNAIDLKVLDRHGNPVLADRLFHSGEHPVYAVRTVEGLRVTGTANHPLLCLVDVAGVPTLLWKLIDEIKPGDYAVIQRSAFSVDCAGFARGKPEFAPTTYTVGVPGLVRFLEAHHRDPDAKAIADELTDGRFYYAKVASVTDAGVQPVYSLRVDTADHAFITNGFVSHN,soluble
6,ASLYEKLGGAAAVDLAVEKFYGKVLADERVNRFFVNTDMAKQKQHQKDFMTYAFGGTDRFPGRSMRAAHQDLVENAGLTDVHFDAIAENLVLTLQELNVSQDLIDEVVTIVGSVQHRNDVLNR,soluble
7,ASWSHPQFEKSGGGGGLVPRGSKRADAGTASALAASQLPQATMPGKSMVAIAGSSYQGQNGLAIGVSRISDNGKVIIRLSGTTNSQGKTGVAAGVGYQW,soluble
8,ATAVNGAPRDAALWSSHEQMLAQPLKDSDAEVYDIIKKESNRQRVGLELIASENFASRAVLEALGSCLNNKYSEGYPGQRYYGGTEHIDELETLCQKRALQAYGLDPQCWGVNVQPYSGSPANFAVYTALVEPHGRIMGLDLPDGGHLTHGFMTDKKKISATSIFFESMAYKVNPDTGYIDYDRLEENARLFHPKLIIAGTSCYSRNLDYGRLRKIADENGAYLMADMAHISGLVVAGVVPSPFEHCHVVTTTTHKTLRGCRAGMIFYRRGVRSVDPKTGKEILYNLESLINSAVFPGLQGGPHNHAIAGVAVALKQAMTPEFKEYQRQVVANCRALSAALVELGYKIVTGGSDNHLILVDLRSKGTDGGRAEKVLEACSIACNKNTCPGDKSALRPSGLRLGTPALTSRGLLEKDFQKVAHFIHRGIELTVQIQDDTGPRATLKEFKEKLAGDEKHQRAVRALRQEVESFAALFPLPGLPGF,soluble
9,ATHTAQTQTHLNFTQIKTVDELNQALVEAKGKPVMLDLYADWCVACKEFEKYTFSDPQVQKALADTVLLQANVTANDAQDVALLKHLNVLGLPTILFFDGQGQEHPQARVTGFMDAETFSAHLRDRQPHHHHHH,soluble
10,ATIKDVAKRANVSTTTVSHVINKTRFVAEETRNAVWAAIKELHYSPSAVARSLKVNHTKSIGLLATSSEAAYFAEIIEAVEKNCFQKGYTLILGNAWNNLEKQRAYLSMMAQKRVDGLLVMCSEYPEPLLAMLEEYRHIPMVVMDAGEAKADFTDAVIDNAFEGGYMAGRYLIERGHREIGVIPGPLERNTGAGRLAGFMKAMEEAMIKVPESWIVQGDFEPESGYRAMQQILSQPHRPTAVFCGGDIMAMGALCAADEMGLRVPQDVSLIGYDNVRNARYFTPALTTIHQPKDSLGETAFNMLLDRIVNKREEPQSIEVHPRLIERRSVADGPFRDYRR,soluble
11,AVIGMNEAASALTPSRVSSLPDTQRAAWQEYLARSEAQLSRDKASLAAELAPGQPLPPPPAEGKGADTMPLDKPAAWYTSKAARHVADVIVSFQTPAGGWGKNQPRDGALRLPGQHYTGENVAKVKSGSNDLDAARDRDWHYVGTIDNDATVTEIRFLAQVVSQLAPEEAAPYRDAALKGIEYLLASQFPNGGWPQVWPLEGGYHDAITYNDDALVHVAELLSDIAAGRDGFGFVPPAIRTRALEATNAAIHCIVETQVVQDGKRLGWGQQHDALTLRPTSARNFEPAALSSTESARILLFLMEIEAPSDAVKQAIRGGVAWLNTSVIRDRAWVKSDQGYQLVTEQGAKPLWSRFYSLDGNKPVFGDRDKTIHDDVMGISQERRTGYAWYTTSPQKALSAFTKWEKRS,soluble
12,AVREEIAGALYLGHSEGVVEKEDRDRILGALDLAERTVEEIMLHRSNIVMLDADAEPETILEHCLQSPHTRLPVYRGEPENIIGVVHAKDLFRAMYAQVGGSEGHTARLKDFDISRVANAPYFVPETTTLDDQMRAFLRMRSHFALVVDEYGSLRGLITLEDILEEIVGEIT,not soluble
13,AVYGIDAMNPSSRDDFTEFGKLLKDKITQYEKSLYYASFLEVLVRDVCISLEIDDLKKITNSLTVLCSEKQKQEKQSKAK,soluble
14,CSKPETNVVAQDGSTSAAAAQVETQTAESRYLALVDGYFKDYLKLEPIYATFVGVNDYNTQFGGDLTEEYLKARHDLNTRYLAQVKTIDLDELPADLQLSYSLFVYDREMALVDETYPSRFMPISQFYSTVITMVQLGSGESAQPFNTVQDYRNWEQRVNGFIDWIKLAQHRMDEGIASKVVLPRVLVERIIPQLDAMLTTDASQSIFYSPITHFPEGFSAQDKAELTASYQAMISERLVPTLTGLRDYFKQTYLPKSRATDGWSGLPNGKAWYQHLANSHTTTTMPVDEIHQIGLSEVARILSEMDKVREQVGFKGDLKAFFASLSSEPQYFYSDRQGLIDGYMALKDKINLVLPQYFNVMPKADYVVKPVESFREQSAAGASYEAPAVDGSRPGVFYINTYNLKAQPKWGMTTLSLHEAAPGHHFQIAIKQELTGVPEFQRFSGYTAFEEGWALYAEYLGIEMGLFSDPYQYFGKLSDEMLRAMRLVVDTGLHAKGWSREQAIQYMKDNSPMAESDIVAEVERYMAIPGQALSYKVGQLKILALRERAEKALGDKFDLKAFHDQILTSGSLPMAVMEQKIDRWIAANK,not soluble
15,DAAKSHAPVVRSMEASLSPELKRELSDGIECIGIGGGDLHTRIVWTQYGTLPHRVGDVQCRYRIVLLPQNADAPQGWQTVWQGARPRNKDSKFALIRKIGENI,not soluble
16,DAIAVWGHRPSAAKPVAIAKAAGKPVIRLEDGFVRSLDLGVNGEPPLSLVVDDCGIYYDASKPSALEKLVQDKAGNAALADQAREAMHTIVTGDLSKYNLAPAFVADESERADIVLVVDQTFNDMSVTYGNAGPHEFAAMLEAAMEENPQAEIWVKVHPDVLEGKKTGYFADLRATQRVRLIAENVSPQSLLRHVSRVYVVTSQYGFEALLAGKPVTCFGQPWYAGWGLTDDRHPQSALLSARRGSATLEELFAAAYLRYCRYIDPLTG,not soluble
17,DCCSCQEKWVGYRCNCYFISSEQKTWNESRHLCASQKSSLLQLQNTDELDFMSSSQQFYWIGLSYSEEHTAWLWENGSALSQYLFPSFETFNTKNCIAYNPNGNALDESCEDKNRYICKQQLI,soluble
18,DDAENIEYKVSISGTSVELTCPLDSDENLKWEKNGQELPQKHDKHLVLQDFSEVEDSGYYVCYTPASNKNTYLYLKARVGSADDAKKDAAKKDDAKKDDAKKDGSQTNKAKRALEVLEAEDKVILKCNSSITLLQGTAGQEVSDNKTLNLGKRIEDPRGMYQCGENAKSFTLQVYYRM,soluble
19,DDIEADHVGSYGIVVYQSPGDIGQYTFEFDGDELFYVDLDKKETIWMLPEFAQLRSFDPQGGLQNIATGKHNLGVLTKRSNSTPATNEAPQATVFPKSPVLLGQPNTLICFVDNIFPPVINITWLRNSKSVADGVYETSFFVNRDYSFHKLSYLTFIPSDDDIYDCKVEHWGLEEPVLKHWEP,soluble
20,DDSCQIGTSFTGLDMTKYVGTWYELFRTPNSDEEDFTNCEYDKYTLDENGVIQVTSVAYTNSIRGFITSTGTVPSWTEDTFDIAYGDDETWSSTYFMVGTDYQTYSIVAGCLDNDYSRHLYWIASHETSFDDATKAKVNEVLAPYNLSLDDMEPVDQSYCVQY,soluble
21,DEPKVLIAEVVVEGATPELEQLVYQVISTRPGSTTTRTQLQQDTNAIFATGFFADVNAVPRDTPLGVRITFVVRPYPVLRAVQVAGNQVLTQEKVNEIFAPQIGRTLNLRELQAGIEKINTFYRDNGYILGQVVGTPQVDPDGVVTLQVAEGVVEQVTYRFLNKEGEPTKQRTRDFVISREMDTQPGVVLNQKTVQADLRRLFELGLFEDVQVALEPGQNPRRVNLILNIKERNT,soluble
22,DHFFELMGTTTEQAYELVDLHPAYRLFPEGSPALDVDSGVGNVATLFDALHPGAGKKVQRYLRNATDVYHLSLRHFLYTTFSNPRDFLRADILRRLPYLARLLSSSLDTWVRNRFPHPILRQILSYPAVFLSTQPTQAPALYSLMSHTDLVEGVHYPRGGFAAIMSAIEKIDREAGVEFYYEHEVTDITIESGRACGITAAGPHGTSTFNADVVVSAADLHHTETRLLPPHLRSYPENYWSKRNPGLGTVLIMLGVRGHLPELAHHNLLFSKDWDPDFAAVYSGPHPSRPLGASQSIYISKTSATDSDAAPEGHENLFILVPVPANDALGHGNTYHHTASPRVEEITRATIAQIATWTGISDLDERIVVTKTIGPADFSERYHAWSSGAIGPAHTLMQSAFFRGKNMASKVKGLYYAGGTTVPGVGVPMCLISAENVITRIKAE,not soluble
23,DIGCYTLGLLPPFDAQDSSTDMGSSIGIANGVYRATGNIPIAVIGDSTFFHSGISALANAVYNQTPMLVLVLDNRSTAMTGQQPSPSKEIDIGEVAKGLGVKYVRYVDPFDVNSSIRELSNALKWVKDNKQPAVVIAKRACALLVMDNVEESNLPKA,not soluble
24,DIQMSQSSSSFSVSLGDRVTITCKASEDIYSRLAWYQQKPGNAPRLLISGATSLETWVPSRFSGSDSGKDYTLSITSLQTEDVATYFCQQYWSPPPTFGGGTKLEIKRADAAPTVSIFPPSSEQLTSGGASVVCFLNNFYPKDINVKWKIDGSERQNGVLNSWTDQDSKDSTYSMSSTLTLTKDEYERHNSYTCEATHKTSTSPIVKSFNRNEC,soluble
25,DIVLTQSPSSLAVSLGQRATISCRASQSVSTSSFRYMHWYQQKPGQPPRLLIKYASNLESGVPARFSGSGSGTDFTLNIHPVEEEDTATYYCQHSWEIPYTFGGGTKLEIKRADAAPTVSIFPPSSEQLTSGGASVVCFLNNFYPKDINVKWKIDGSERQNGVLNSWTDQDSKDSTYSMSSTLTLTKDEYERHNSYTCEATHKTSTSPIVKSFNRNEC,soluble
26,DLFVVEKPPSLPVHTCGQYAIHTVLGQLRVNEGRTGLRVLHRLDRATSGVLLFAKNYETDLEFKTTLKQGEWSKEYICKVDGVFPDEEQVCEQPIGPLVISMGIQCVRPDGKDAKSRFRKLWSDGTQSVVQVHIETGRTHQIRVHSQF,not soluble
